The supplement of paper PMC10126150
± gives the standard deviation of the averaged measurements.

These sequences were tested on ATP (assay: switch fluorescence ratio, 500 uM ATP over buffer (Cy3 cluster intensity, sum of 5 cycles each) (fold (ratio)); higher = stronger signal-on switching upon ATP binding; sequences stand for … in TCGTCGGCAGCGTCAGATGTGTATAAGAGACAGTTTTTTTTTTTTTTTTTTTTTTTTT…TC). Settings: aptamer strand: ATP DNA aptamer (quencher-CACCTGGGGGAGTATTGCGGAGGAAGG + anchor), 100 nM annealed; ATP concentration: 500 uM.
Method in brief: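 The quencher-labelled ATP aptamer, at 100 nM, was annealed to Cy3-labelled switching-strand clusters on a modified Illumina MiSeq flow-cell. The clusters were imaged in selection buffer, then after 15 min with 500 uM ATP at 22 °C, and this buffer/ATP cycle ran five times with NaOH stripping and re-annealing between runs. Per-cluster fluorescence ratios, summed target-cycle over summed buffer-cycle Cy3 intensity, were averaged per switch-domain sequence. Clusters outside 100-1000 RFU were excluded.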
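Note: ATP exposure 15 min at 22 °C before imaging.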

| Sequence | switch fluorescence ratio |
| --- | --- |
| CCTGGGTGAA | 1.2 ± 0.03 |
| CCTGGGTTAG | 0.998 ± 0.017 |
| CCTGGTCCTA | 0.9879 ± 0.0074 |
| CCTGGTGACG | 1.035 ± 0.002 |
| CCTGGTTAGG | 0.983 ± 0.013 |
| CCTGTACCAC | 1.07 ± 0.019 |
| CCTGTGGGGG | 0.993 ± 0.028 |
| CCTGTGGTGC | 1.342 ± 0.0072 |
| CCTGTGTCCG | 1.12 ± 0.052 |
| CCTGTTAAAT | 1.05 ± 0.022 |
| CCTGTTGCGA | 2.66 ± 0.52 |
| CCTGTTGGTT | 0.955 ± 0.033 |
| CCTGTTTCAG | 1.05 ± 0.018 |
| CCTTAACGGC | 1.06 ± 0.015 |
| CCTTAGGGGG | 1.24 ± 0.33 |
| CCTTATTGTC | 0.997 ± 0.024 |
| CCTTATTTTC | 0.9984 ± 0.0059 |
| CCTTCTAGTT | 1.035 ± 0.0018 |
| CCTTGACGGG | 1.18 ± 0.17 |
| CCTTGAGGGC | 1.34 ± 0.38 |
| CCTTGAGGGG | 0.9925 ± 0.0036 |
| CCTTGCGGGA | 1.06 ± 0.011 |
| CCTTGTAGGG | 1.02 ± 0.03 |
| CCTTGTTTAA | 1.01 ± 0.086 |
| CCTTTAGGGT | 0.9997 ± 0.0014 |

| Sequence | switch fluorescence ratio |
| --- | --- |
| CCTTTATGGT | 0.983 ± 0.011 |
| CCTTTGCCGC | 1.58 ± 0.54 |
| CCTTTGCTGT | 1.073 ± 0.0024 |
| CCTTTGGGCT | 0.989 ± 0.025 |
| CGAAAAATGG | 1.04 ± 0.046 |
| CGAAAACTTT | 1.07 ± 0.064 |
| CGAAAAGAAT | 1.02 ± 0.029 |
| CGAAAATGGG | 0.9772 ± 0.0058 |
| CGAAAATTAA | 1 ± 0.047 |
| CGAAAGGGAC | 1.033 ± 0.0092 |
| CGAAAGTATA | 1.08 ± 0.075 |
| CGAAATACGG | 2.83 ± 0.18 |
| CGAAATGCTG | 1.09 ± 0.016 |
| CGAAATGTAA | 0.992 ± 0.024 |
| CGAACAGCGA | 1.27 ± 0.015 |
| CGAACAGGTT | 1.04 ± 0.02 |
| CGAACCTTCG | 2.35 ± 0.092 |
| CGAACTGCAG | 1.034 ± 0.0016 |
| CGAAGAGGGG | 0.995 ± 0.016 |
| CGAAGATGGG | 0.981 ± 0.03 |
| CGAAGCGCCC | 4.36 ± 3 |
| CGAAGGCGTA | 1.027 ± 0.0062 |
| CGAAGGCTCG | 0.99 ± 0.04 |
| CGAAGGGCTA | 1.15 ± 0.19 |
| CGAAGTTATG | 1.06 ± 0.03 |

| Sequence | switch fluorescence ratio |
| --- | --- |
| CGAAGTTTGG | 1.02 ± 0.02 |
| CGAATAGGCG | 0.976 ± 0.048 |
| CGAATCGGCT | 1.05 ± 0.054 |
| CGAATGGGGA | 0.992 ± 0.077 |
| CGAATGTGGG | 1.0147 ± 0.00075 |
| CGAATTCCAC | 1.024 ± 0.0099 |
| CGAATTGGTA | 0.982 ± 0.011 |
| CGAATTTGCC | 1.01 ± 0.065 |
| CGAATTTGTC | 1.02 ± 0.035 |
| CGACCTTTTC | 1.4 ± 0.34 |
| CGACGAACTT | 1.236 ± 0.0059 |
| CGACTAAGAG | 1.02 ± 0.025 |
| CGACTATAGG | 1 ± 0.023 |
| CGACTTGAAA | 1.04 ± 0.041 |
| CGACTTGCGT | 1.01 ± 0.012 |
| CGACTTTCAA | 1.05 ± 0.032 |
| CGAGAAATGG | 1.07 ± 0.055 |
| CGAGAAGAGT | 1.01 ± 0.053 |
| CGAGAGAGTG | 0.96 ± 0.02 |
| CGAGAGGGGG | 0.9723 ± 0.0065 |
| CGAGCAGAGT | 1.13 ± 0.021 |
| CGAGCATTTT | 1.14 ± 0.017 |
| CGAGCGACGT | 0.9863 ± 0.007 |
| CGAGCTGTTT | 1.02 ± 0.0099 |
| CGAGCTTATA | 1.38 ± 0.032 |

| Sequence | switch fluorescence ratio |
| --- | --- |
| CGAGGAATTT | 1.04 ± 0.043 |
| CGAGGATAGG | 0.999 ± 0.035 |
| CGAGGCGCG | 0.9537 ± 0.008 |
| CGAGGGAGGG | 0.999 ± 0.015 |
| CGAGGGCCGG | 0.9974 ± 0.0081 |
| CGAGGGGCTT | 0.997 ± 0.035 |
| CGAGGGGGCC | 0.97 ± 0.052 |
| CGAGGGGTTA | 1.01 ± 0.022 |
| CGAGGGGTTT | 0.984 ± 0.059 |
| CGAGGGTGTT | 1.05 ± 0.077 |
| CGAGGTGTAG | 0.98 ± 0.022 |
| CGAGGTTAAT | 1.051 ± 0.0011 |
| CGAGGTTAGG | 1.06 ± 0.062 |
| CGAGGTTATT | 1 ± 0.037 |
| CGAGGTTGGG | 1.002 ± 0.0028 |
| CGAGTAGAAT | 1.06 ± 0.065 |
| CGAGTCCTGT | 1 ± 0.02 |
| CGAGTCGGGA | 0.999 ± 0.021 |
| CGAGTGCCCA | 0.996 ± 0.033 |
| CGAGTTAAAA | 1.002 ± 0.0069 |
| CGAGTTCGGC | 0.976 ± 0.06 |
| CGAGTTGCTG | 0.988 ± 0.11 |
| CGAGTTGGGG | 1.01 ± 0.031 |
| CGAGTTTCGG | 1.011 ± 0.0073 |
| CGAGTTTTTA | 0.994 ± 0.027 |
